US20170119790A1, “Agents, Uses and Methods” (CYTOGUIDE A/S, priority 2009, published 2017)

Assays:
[1] = molecular target: T1, CD163 receptor on surface of human macrophages (Homo sapiens, UniProt Q86VB7); experiment: Cellular binding and uptake of fluorescently labeled CD163 antibodies in monocyte-derived macrophages; format: cell-based
T1 construct: Freshly drawn peripheral whole blood samples or PBMC; endogenous in cells; host or cells: human peripheral blood monocytes, blood dendritic cells, monocyte-derived macrophages (healthy donors, buffy coats)
T1 sequence (Q86VB7 42-1156): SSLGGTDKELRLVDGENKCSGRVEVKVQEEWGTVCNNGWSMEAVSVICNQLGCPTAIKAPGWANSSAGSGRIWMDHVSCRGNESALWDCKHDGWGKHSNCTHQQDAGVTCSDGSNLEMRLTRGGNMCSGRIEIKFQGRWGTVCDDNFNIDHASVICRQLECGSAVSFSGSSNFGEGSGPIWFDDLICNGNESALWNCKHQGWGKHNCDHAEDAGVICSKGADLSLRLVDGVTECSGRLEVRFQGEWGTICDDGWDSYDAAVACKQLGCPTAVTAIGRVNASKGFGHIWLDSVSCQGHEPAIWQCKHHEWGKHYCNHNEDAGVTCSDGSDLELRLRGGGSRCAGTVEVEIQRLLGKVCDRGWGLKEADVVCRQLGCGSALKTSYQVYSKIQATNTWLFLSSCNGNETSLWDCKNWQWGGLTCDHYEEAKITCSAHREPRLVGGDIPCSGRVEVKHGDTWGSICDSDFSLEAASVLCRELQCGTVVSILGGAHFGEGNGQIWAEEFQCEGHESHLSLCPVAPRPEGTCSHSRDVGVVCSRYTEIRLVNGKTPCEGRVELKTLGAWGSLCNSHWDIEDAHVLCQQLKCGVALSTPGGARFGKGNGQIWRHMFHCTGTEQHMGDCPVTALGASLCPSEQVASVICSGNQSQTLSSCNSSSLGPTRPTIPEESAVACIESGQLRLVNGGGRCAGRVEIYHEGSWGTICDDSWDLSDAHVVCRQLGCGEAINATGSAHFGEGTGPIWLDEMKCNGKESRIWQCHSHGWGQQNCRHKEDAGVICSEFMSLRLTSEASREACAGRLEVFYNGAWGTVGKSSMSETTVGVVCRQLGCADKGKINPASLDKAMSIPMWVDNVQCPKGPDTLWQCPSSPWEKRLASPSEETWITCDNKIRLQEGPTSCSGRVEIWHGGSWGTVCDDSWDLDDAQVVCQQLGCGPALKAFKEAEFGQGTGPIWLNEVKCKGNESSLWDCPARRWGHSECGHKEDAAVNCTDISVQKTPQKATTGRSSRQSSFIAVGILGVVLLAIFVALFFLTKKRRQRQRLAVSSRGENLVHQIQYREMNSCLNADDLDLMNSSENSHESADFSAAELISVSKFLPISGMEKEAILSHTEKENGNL
Experimental: Monocytes were isolated from PBMC by negative selection using magnetic beads from Dynal (Dynabeads® MyPure™ Monocyte Kit 2; Invitrogen A/S, Taastrup, Denmark) according to instructions provided by the manufacturer. Monocyte preparations were more than 95% (CD14^+) pure determined by flow cytometry. The isolated cells were washed twice with phosphate-buffered saline. Monocyte-derived macrophages (MDMs) were prepared by cell culture of monocytes (approximately 1×10^7 cells) for 4 days in 5% CO2 and 37° C. in RPMI 1640 media (RPMI 1640+25 mM HEPES+I-glutamine) (Invitrogen Corporation, Carlsbad, Calif., USA) with 20% FCS containing 100 ng/ml of M-CSF. MDMs were then detached from the flask by incubation with cell dissociation buffer (Invitrogen A/S, Taastrup, Denmark) for 30 minutes at 4 °C, then flushed, and scraped. The cells were then cultured for 24 hours in RPMI 1640 media (RPMI 1640+25 mM HEPES+I-glutamine) (Invitrogen Corporation, Carlsbad, Calif., USA) supplemented with 20% FCS containing 100 ng/ml of M-CSF at 37° C. in 95% air and 5% CO2 in Lab-Tek™ Chamber Slides (Thermo Fisher Scientific, Roskilde, Denmark). 200 nM dexamethasone (Merck KGaA, Darmstadt, Germany) was added during culture to increase CD163 expression. Stably transfected Chinese hamster ovary (CHO) cells expressing the full-length human CD163, as described above, were cultured in serum-free CHO medium (HyQ-CCM, HyClone, Logan, Utah) containing 300 μg/ml Hygromycin B, as previously described (2).
MDMs or CHO cells were washed with 4° C. cold D-PBS, pH 7.4, containing 1% BSA in Lab-Tek™ Chamber Slides (Thermo Fisher Scientific, Roskilde, Denmark). The cells were then incubated with 10 μg/ml different clones of anti-CD163 for one hour at 4° C. and then washed three times with D-PBS, pH 7.4, with 1% BSA. […] Fluorescence was visualized using a Zeiss Axiovert 200M microscope (Carl Zeiss GmbH, Jena, Germany) with an ×100 oil-immersion objective. […] Alternatively, immunostained cells were analyzed by confocal immunofluorescence microscopy using a Zeiss LSM-510 confocal microscope (Carl Zeiss GmbH, Jena, Germany). […]

CD163 = CD163 (Homo sapiens, UniProt Q86VB7); experiment: Competition of binding to Mac2-158 epitope (SPR on Mac2-158 saturated CD163 chip); conditions: 2 mM free calcium buffer, mAb 5 μg/ml
Sequence of CD163 (Q86VB7 42-1156): as above
Experimental: To evaluate if there is competition in the binding of a range of mAbs to CD163 we first saturated the CD163-chip with Mac2-158 by injecting 50 μL of 50 μg/ml Mac2-158 and subsequently injecting relevant mAbs in 5 μg/ml. The binding buffer was CaHBS 10 mM Hepes, 150 mM NaCl, 3.0 mM CaCl2, 1.0 mM EGTA, and 0.005% Tween 20, pH 7.4.

mouse CD163 1-5 wt = molecular target: T2, mouse CD163 1-5 wt (Mus musculus, UniProt Q2VLH6); experiment: Western blotting of mouse CD163 and knock in mutant; format: binding
T2 construct: CD163 domain 1-5 was used for expression of mouse CD163 domain 1-5/V5/His; made in house; host or cells: Lenti-X 293T, transient; captured from supernatant on Ni-NTA
T2 sequence (Q2VLH6 with tags, fused parts or gaps): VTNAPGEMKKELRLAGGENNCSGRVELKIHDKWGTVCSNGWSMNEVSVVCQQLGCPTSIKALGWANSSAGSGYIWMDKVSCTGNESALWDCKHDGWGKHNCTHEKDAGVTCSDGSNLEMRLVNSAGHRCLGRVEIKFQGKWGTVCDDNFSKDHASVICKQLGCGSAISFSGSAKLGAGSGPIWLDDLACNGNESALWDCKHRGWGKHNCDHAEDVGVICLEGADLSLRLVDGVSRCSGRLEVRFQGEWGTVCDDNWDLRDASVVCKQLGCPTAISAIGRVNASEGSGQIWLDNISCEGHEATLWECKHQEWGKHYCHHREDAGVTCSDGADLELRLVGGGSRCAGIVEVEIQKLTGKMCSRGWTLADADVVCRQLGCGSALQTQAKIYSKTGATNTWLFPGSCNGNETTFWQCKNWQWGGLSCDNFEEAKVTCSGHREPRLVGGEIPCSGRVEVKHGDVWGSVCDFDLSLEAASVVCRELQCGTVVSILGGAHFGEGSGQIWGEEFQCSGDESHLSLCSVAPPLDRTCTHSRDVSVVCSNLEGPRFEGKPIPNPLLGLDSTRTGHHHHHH
Experimental: The mouse CD163 1-5 and the mouse CD163 domain 1 mutant were expressed transient in Lenti-X 293T cells as follows: 1.5 μg of the DNA was diluted in OptiCHOPro SFM (8 mM L-glutamine) to a total volume of 50 μl The DNA was gently mixed with 50 μl of OptiCHOPro SFM containing 1.5 μl Freestyle MAX transfection reagent (Invitrogen, Taastrup, Denmark). After 10 min of incubation at room temperature the complexes were added to 1×10^6 cells in 1 ml. Three days later, the cell supernatants were harvested by centrifugation.
Tris pH 8 buffer, and cell culture supernatants were added 60 μl of Ni-NTA His-bind resin slurry. After 1 hour shaking at 4° C. the supernatants were aspired and each of the purifications were eluted with 90 μl 50 mM Tris pH 8, 25 mM EDTA buffer.
90 μl of each of the eluates were added 30 μl of 4×LDS sample buffer. 20 μl samples of each supernatant and 8 μl SeeBlue plus2 prestained marker were loaded on NuPage 4-12% Bis-Tris-Gels (Invitrogen, Taastrup, Denmark) and the SDS-PAGEs were run with MOPS running buffer according to instructions of the manufacturer (200 V constant for 50 min). Blotting to PVDF membranes (Invitrogen, Taastrup, Denmark) was done on an iBLOT device according to instructions of the manufacturer. After blotting the membranes were washed briefly in 1×PBS 0.1% Tween and blocked for 30 min in 1×PBS 2% Tween at room temperature with shaking. […]

B1: MAC2-158: anti-human CD163 murine mAb, binds SRCR domain 1, IQ Products; VH SEQ ID NO: 1, VL SEQ ID NO: 2 (antibody, V domains shown)
VH: DVQLQESGPGLVKPSQSLSLTCTVTGYSITSDYAWNWIRQFPGNKLEWMGYITYSGITNYNPSLKSQISITRDTSKNQFFLQLNSVTTEDTATYYCVSGTYYFDYWGQGTTLTVSS
VL: SVVMTQTPKSLLISIGDRVTITCKASQSVSSDVAWFQQKPGQSPKPLIYYASNRYTGVPDRFTGSGYGTDFTFTISSVQAEDLAVYFCGQDYTSPRTFGGGTKLEIKRA
modifications: Mac2-158 VH; Mac2-158 VL
binding and uptake ([1]; 0 or 30 minutes, FIG. 6): best binding and uptake
intensity of intracellular staining ([1]; after incubation for 30 min): most prominent
cell surface staining ([1]; immunofluorescence, 0 min, macrophages stimulated with 200 nM dexamethasone): pronounced cell surface staining
binding to CD163-Fc saturated with Mac2-158 (CD163): not able to bind
binding in western blot (mouse CD163 1-5 wt): did not bind
